The record followed here is publication PMC548335 (Nucleic Acids Research, 2005).

The target in test [1] is T1, GST-hTFIIB (human, UniProt Q00403 1-316).
T1 sequence: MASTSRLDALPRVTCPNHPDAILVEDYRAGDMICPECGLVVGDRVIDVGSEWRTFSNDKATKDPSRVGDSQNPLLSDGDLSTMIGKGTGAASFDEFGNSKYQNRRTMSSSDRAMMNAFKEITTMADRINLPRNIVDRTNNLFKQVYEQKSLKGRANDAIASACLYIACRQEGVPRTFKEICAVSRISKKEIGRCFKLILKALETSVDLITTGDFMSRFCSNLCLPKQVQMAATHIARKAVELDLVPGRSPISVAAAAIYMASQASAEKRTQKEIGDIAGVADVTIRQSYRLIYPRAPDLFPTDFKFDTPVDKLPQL
Briefly: pull-down.

Test [2] concerns the target T2, GST-Pta1 (yeast, UniProt Q01329 1-785).
T2 sequence: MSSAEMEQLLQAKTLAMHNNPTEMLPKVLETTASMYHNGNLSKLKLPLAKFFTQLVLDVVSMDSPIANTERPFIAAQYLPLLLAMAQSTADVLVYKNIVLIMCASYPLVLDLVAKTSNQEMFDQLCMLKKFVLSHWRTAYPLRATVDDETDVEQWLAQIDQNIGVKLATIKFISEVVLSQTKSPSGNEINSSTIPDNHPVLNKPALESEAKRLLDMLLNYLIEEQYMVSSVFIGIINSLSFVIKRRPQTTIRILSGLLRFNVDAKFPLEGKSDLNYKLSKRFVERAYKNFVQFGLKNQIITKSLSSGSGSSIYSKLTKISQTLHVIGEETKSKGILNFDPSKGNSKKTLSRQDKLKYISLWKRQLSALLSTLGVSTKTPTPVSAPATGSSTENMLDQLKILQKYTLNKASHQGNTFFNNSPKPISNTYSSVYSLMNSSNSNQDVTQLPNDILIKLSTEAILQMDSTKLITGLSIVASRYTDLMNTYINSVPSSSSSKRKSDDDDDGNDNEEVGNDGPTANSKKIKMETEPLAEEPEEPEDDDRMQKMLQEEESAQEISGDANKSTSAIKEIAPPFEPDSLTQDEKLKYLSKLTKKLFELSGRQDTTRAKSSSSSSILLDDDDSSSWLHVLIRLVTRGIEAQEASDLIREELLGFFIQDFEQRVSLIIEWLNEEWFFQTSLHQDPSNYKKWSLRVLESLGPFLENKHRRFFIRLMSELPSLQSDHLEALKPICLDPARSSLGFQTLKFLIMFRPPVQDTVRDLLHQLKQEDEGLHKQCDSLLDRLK
The experiment in a line: pull-down.

B1: Hat-hSsu72Δ1-12 (domain or fragment)
chain: SSNQNRSMEAHNILSKRGFSVRSFGTGTHVKLPGPAPDKPNVYDFKTTYDQMYNDLLRKDKELYTQNGILHMLDRNKRIKPRPERFQNCKDLFDLILTCEERVYDQVVEDLNSREQETCQPVHVVNVDIQDNHEEATLGAFLICELCQCIQHTEDMENEIDELLQEFEEKSGRTFLHTVCFY
As for B1, the binding result in test [1] and in test [2] was “binds” throughout.

B2: Hat-hSsu72 (natural protein)
chain: MPSSPLRVAVVCSSNQNRSMEAHNILSKRGFSVRSFGTGTHVKLPGPAPDKPNVYDFKTTYDQMYNDLLRKDKELYTQNGILHMLDRNKRIKPRPERFQNCKDLFDLILTCEERVYDQVVEDLNSREQETCQPVHVVNVDIQDNHEEATLGAFLICELCQCIQHTEDMENEIDELLQEFEEKSGRTFLHTVCFY
As for B2, the binding result in test [1] and in test [2] was “binds” each time.
